Source: US20020177689A1

Biological target: Rhodamine green-Gly-Gly-dPhe-Leu-Arg-Arg-Val-Cys(QSY 7)-betaAla-NH2

Km (steady state kinetics, FRET cleavage assay): 8 µM
Substance: recombinant human neutral endopeptidase (NEP) (from UniProt P08473) (enzyme)
